{"source": "paper PMC11330476", "molecules": {"B1": {"name": "PneKC, wild type, N-terminally His-tagged, expressed without PneA (apo PneKC) (enzyme)", "chain": "MDYNFNLEHPFFFTNNDYSTDTSIKYQASLPFNWHEVMNNDEWVYQYPIGKFVERQGWKIHISSEYNSSHELLQDVAKICHEMRIPFKHLSTEDKFIMRNGKLVSRGFSGKFITCYPNQNELESVLQRLESALKQYNGPYILSDKRWDEAPIYLRYGVFRPSRDDEKKVAIDELIVGDEVVKDERLPVFKIPKGIVPPDFLNKWLDKKDKKQGDFPFIIDNAIRFSNSGGIYNARLKEDGKKIILKEARPYTGLGFDGTYSSEKLASECKALKILNEWSEAPKIYWHGKIWEHTFLGIEHMKGVPLNRWVTNNFPLYEVVDKTKDYLLRVSKIVEKLIDLTNKFHSENVYHQDLHLGNILVKDEDEISIIDWEQAVFSNDEKVVHKVAAPGFRAWRETLPSEIDWYGIRQIAHYLYMPLVTTSDLTYNYVSQTRIEGKKLFESLGYTREHIDYVESLLSYLDSKCPQIENISRKKVLKPMHEIRTIESEQDIQDFIIKLLRGFTLTYGQWRKEFQSRFFPVHYYGLNFNQGIAFSDLAILWSYQQLAKKVKNFKFDDYYEIRTQVINEAVNNFKKSSLSGLFDGKIGTIWLIYEFGEIDRAVELFTTHFIEIFENSQNKNLYSGQAGILLVGLYFLSKGEIDNKLGEEILIRLREYTLNYIENPETFCKVGASDVQSNDPYENFGGLLYGHAGVAWLFGEAYKLTGESIYKNGLELAVDKELVAYKVDSNNSLQYSQGHRLLPYLATGSAGLLLLINRNKEILSSKYLKYLTSLERATDVVFCVLPGLFNGFCGLEVANNIYSDIDDNFSGQKKLIEQLYRYLCVIEEGFVIAGDNGLKITTDIASGFAGVAIGLVSIMDNKLTILPQI", "modifications": "not checked"}, "B2": {"name": "PneKC, wild type, N-terminal His7 tag, co-expressed with PneA from pQLinkN-PneKC-PneA (enzyme)", "chain": "B1 chain", "modifications": "not checked"}}, "key": {"[1]": {"target": "PneKC without His tag, co-expressed with N-terminally His-tagged PneA (Streptococcus pneumoniae)", "assay": "negative-stain EM"}, "[2]": {"target": "T1, PneKC, wild type, N-terminally His-tagged, expressed without PneA (apo PneKC) (Streptococcus pneumoniae)", "assay": "negative-stain EM"}, "[3]": {"target": "T1, PneKC, wild type, N-terminally …", "assay": "SEC"}, "[4]": {"target": "PneKC, wild type, N-terminal His7 tag, co-expressed with PneA from pQLinkN-PneKC-PneA (Streptococcus pneumoniae)", "assay": "SEC"}}, "data": [{"molecule": "PneKC without His tag, co-expressed with N-terminally His-tagged PneA (enzyme)", "values": [{"measurement": "stoichiometry N", "setting": "[1]", "result": 2}]}, {"molecule": "B1", "values": [{"measurement": "stoichiometry N", "setting": "[2]", "result": 2}, {"measurement": "stoichiometry N", "setting": "[3]", "result": 2}]}, {"molecule": "B2", "values": [{"measurement": "stoichiometry N", "setting": "[4]", "result": 2}]}]}
